Measured values: patent publication US20060041106A1

Biological target: Fas/Apo-1 receptor (human) (UniProt P25445)
Test: cell-based or functional assay

Sequence of UniProt P25445 (P25445 26-335): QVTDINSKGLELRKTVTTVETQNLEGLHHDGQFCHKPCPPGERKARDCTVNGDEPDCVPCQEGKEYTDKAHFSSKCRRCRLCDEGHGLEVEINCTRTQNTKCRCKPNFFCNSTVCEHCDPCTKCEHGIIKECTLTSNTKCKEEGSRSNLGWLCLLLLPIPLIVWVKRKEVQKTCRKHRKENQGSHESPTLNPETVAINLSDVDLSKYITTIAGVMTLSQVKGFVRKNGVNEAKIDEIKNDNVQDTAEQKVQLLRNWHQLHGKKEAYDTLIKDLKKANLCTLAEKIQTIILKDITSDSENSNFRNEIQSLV

anti-Apo-1 monoclonal antibody, CH11
% apoptotic cells, 9D cells, CH11 1 ug/ml, 24 h (control 22.5): 90.8% | % apoptotic cells, Jurkat cells, CH11 1 ug/ml, 24 h (control 5.9): 18.1% | % apoptotic cells, Raji cells, CH11 1 ug/ml, 24 h (control 35.9): 83.7%
